In patent publication US20100035825A1:

Tests used:
[1] = target: purified recombinant procaspase 1 (human, Alexis Biochemicals) (human) (UniProt P29466); assay: co-immunoprecipitation of purified recombinant proteins (C/EBPβ peptides 200 µM), immunoblot, densitometry; reference C/EBPβ-HA-Ala217
[2] = target: purified recombinant procaspase 8 (human, Alexis Biochemicals) (human) (UniProt Q14790); assay: co-immunoprecipitation of purified recombinant proteins (C/EBPβ peptides 200 µM), immunoblot, densitometry; reference C/EBPβ 216-253-HA-Ala217
[3] = target: purified recombinant procaspase 1 (human, Alexis Biochemicals) (human) (UniProt P29466); assay: as above

Chain of purified recombinant procaspase 8 (human, Alexis Biochemicals) (human) (Q14790 217-479 limits assumed): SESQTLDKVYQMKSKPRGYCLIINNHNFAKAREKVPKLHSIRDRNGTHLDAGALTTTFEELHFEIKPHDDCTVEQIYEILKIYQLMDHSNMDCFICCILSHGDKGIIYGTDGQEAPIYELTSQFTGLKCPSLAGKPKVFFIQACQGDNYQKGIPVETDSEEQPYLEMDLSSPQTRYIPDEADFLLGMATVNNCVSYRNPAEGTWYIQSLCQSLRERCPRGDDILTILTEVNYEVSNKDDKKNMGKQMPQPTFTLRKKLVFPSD

Question: With “C/EBPβ-HA-Glu^217 (from UniProt P28033 1-296)” as the substance, how does the fold more co-immunoprecipitated than the Ala^217 peptides (densitometry) [1] read?
Answer: 7 fold

Question: For C/EBPβ 216-253-HA-Glu^217, which fold more co-immunoprecipitated than the Ala^217 peptides (densitometry) [2] is on record?
Answer: 12 fold

Question: What about the fold more co-immunoprecipitated than the Ala^217 peptides (densitometry) [3] of the same substance?
Answer: 7 fold
